Data on three molecules can be found in PMC3637229, “Differential Translation of Dazap1 Transcripts during Spermatogenesis”.

In data set [1] the target is T1, His-DAZL (Mus musculus, UniProt Q64368 1-298).
T1 sequence: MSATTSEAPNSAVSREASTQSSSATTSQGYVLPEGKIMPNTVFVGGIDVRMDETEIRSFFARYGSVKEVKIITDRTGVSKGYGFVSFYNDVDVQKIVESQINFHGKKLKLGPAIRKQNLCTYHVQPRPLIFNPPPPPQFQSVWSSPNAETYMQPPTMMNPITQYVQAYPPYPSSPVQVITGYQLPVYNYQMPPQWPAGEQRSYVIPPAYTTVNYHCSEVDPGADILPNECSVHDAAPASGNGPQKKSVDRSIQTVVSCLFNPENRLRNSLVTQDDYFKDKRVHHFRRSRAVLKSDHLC
The experiment in a line: competition; cold C_40 1, 5, 10 ng vs labeled CU_40; EMSA: 1 ug DAZL in 10 ul, 20 mM Tris pH 7.4, 2.5 mM MgCl2, 60 mM KCl, 1 mM DTT, 5% glycerol, RT, then 5 mg/ml heparin + 0.5 mg/ml yeast tRNA; pull-down: 20 mM Tris-HCl pH 7.4, 2.5 mM MgCl2, 120 mM KCl, 1 mM DTT, 5% glycerol, RT, 5 mg/ml heparin. The note with it: protein: recombinant; tags: His (pET-28a). Background: A gel shift assay detects complexes by their altered migration in electrophoresis.

Data set [2] has as its target T1, His-DAZL. The experiment in a line: EMSA; heparin, yeast tRNA; EMSA: 1 ug DAZL in 10 ul, 20 mM Tris pH 7.4, 2.5 mM MgCl2, 60 mM KCl, 1 mM DTT, 5% glycerol, RT, then 5 mg/ml heparin + 0.5 mg/ml yeast tRNA; pull-down: 20 mM Tris-HCl pH 7.4, 2.5 mM MgCl2, 120 mM KCl, 1 mM DTT, 5% glycerol, RT, 5 mg/ml heparin. Particulars: protein: recombinant; tags: His (pET-28a); label: 32P (gel shift).

Turning to AGGGUUUAAAAAACGCCUUCAGCUUUAAUUCAGAAUUUCAGGU (ssRNA) [C_40], in data set [1], the binding result is listed as “no binding”.

B1: Dazap1 3'UTR C region (ssRNA)
RNA: AGGGUUUAAAAAACGCCUUCAGCUUUAAUUCAGAAUUUCAGGUUUCUUUUUCUUCUUCCUUUUUUUUCCUUUUUUUGAGAUUAUUUUCUUGAGCCUUUUGUUUUAUGGUAUAUUGUAAACUUUUAUGUUAAAGAAAAAAUAUACAUUUACAAAUUGUGAGAUUUUUAAGAGAAAUUUUCUACAAUGUAUACUGGCUUAUUUUUUAAUUUAAAGCAGGGUUCGGGUG
Consider B1, for which the binding result in data set [2] is listed as “binds”.

Consider AGGUUUCUUUUUCUUCUUCCUUUUUUUUCCUUUUUUUGAG (ssRNA) [CU_40], for which, in data set [2], the binding result is “binds”.
